# Data from patent US20200231684A1 (published 2020).
# Read-outs that look alike come from different tables or passages of the source.
# T1: human IL-36R on cells (human, UniProt Q9HB29 20-575)
# T1 sequence (looked up): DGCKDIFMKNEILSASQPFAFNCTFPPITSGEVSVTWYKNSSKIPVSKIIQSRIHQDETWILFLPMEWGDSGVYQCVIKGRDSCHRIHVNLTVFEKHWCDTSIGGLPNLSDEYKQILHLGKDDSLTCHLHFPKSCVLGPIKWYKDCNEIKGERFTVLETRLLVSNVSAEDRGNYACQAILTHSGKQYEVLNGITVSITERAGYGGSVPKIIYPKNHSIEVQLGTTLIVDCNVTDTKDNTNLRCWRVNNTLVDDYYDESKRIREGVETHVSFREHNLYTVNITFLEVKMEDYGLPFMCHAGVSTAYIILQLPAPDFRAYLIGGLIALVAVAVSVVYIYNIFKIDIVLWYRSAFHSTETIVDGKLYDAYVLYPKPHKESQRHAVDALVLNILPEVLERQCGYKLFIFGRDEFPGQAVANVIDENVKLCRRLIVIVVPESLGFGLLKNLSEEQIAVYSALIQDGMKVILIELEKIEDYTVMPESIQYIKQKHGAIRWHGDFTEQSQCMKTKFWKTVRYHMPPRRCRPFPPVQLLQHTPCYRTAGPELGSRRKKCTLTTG
# T2: human IL-1R1 (human, UniProt P14778 18-336, limits assumed)
# T2 construct: also called IL-1RI
# T2 sequence (looked up): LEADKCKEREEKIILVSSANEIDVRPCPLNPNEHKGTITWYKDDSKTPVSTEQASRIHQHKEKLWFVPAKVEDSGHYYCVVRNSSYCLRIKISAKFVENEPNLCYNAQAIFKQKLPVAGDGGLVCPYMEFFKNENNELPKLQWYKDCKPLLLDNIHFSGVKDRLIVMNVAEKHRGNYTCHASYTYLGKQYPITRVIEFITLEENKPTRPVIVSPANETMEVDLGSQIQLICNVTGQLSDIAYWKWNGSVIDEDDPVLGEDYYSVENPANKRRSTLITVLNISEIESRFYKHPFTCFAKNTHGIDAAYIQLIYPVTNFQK
# T3: mouse IL-36R (mouse, UniProt Q9ERS7 22-338)
# T3 sequence (looked up): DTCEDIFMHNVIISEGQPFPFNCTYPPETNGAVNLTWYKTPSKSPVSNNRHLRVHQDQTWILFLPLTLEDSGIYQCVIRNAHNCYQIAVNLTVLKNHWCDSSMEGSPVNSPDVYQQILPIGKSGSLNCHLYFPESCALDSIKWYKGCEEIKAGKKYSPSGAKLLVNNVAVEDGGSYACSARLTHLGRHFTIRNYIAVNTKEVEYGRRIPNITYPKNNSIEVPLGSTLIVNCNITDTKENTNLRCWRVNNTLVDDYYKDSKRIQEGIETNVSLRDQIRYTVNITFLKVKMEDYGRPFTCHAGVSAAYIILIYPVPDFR
# T4: recombinant human IL-36R (ECD) (human, UniProt Q9HB29 20-332)
# T4 construct: range 20-332; also called IL-1RL2; IL-1Rrp2
# T4 sequence (looked up): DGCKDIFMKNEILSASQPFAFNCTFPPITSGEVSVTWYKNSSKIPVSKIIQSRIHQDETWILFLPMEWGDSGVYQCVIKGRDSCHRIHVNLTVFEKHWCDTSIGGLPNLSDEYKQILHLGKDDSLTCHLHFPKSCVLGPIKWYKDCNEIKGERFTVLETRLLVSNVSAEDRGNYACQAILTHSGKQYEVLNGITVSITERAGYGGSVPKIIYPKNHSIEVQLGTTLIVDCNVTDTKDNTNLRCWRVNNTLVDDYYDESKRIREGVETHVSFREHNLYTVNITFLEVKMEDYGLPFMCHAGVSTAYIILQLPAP
# Key:
# human IL-36R on cells [1] = biological target: T1, human IL-36R on cells; test: cell-based or functional assay
# human IL-1R1 = biological target: T2, human IL-1R1; test: BLI (Fortebio Octet), antibody injected over antigen surface
# Experimental: (§1) B) Molecular selectivity over mouse IL-36R and human IL-1R1 The mouse and chimeric anti-IL-36R antibodies were also injected over either a mouse IL-36R or a human IL-1R1 surface at a concentration of 100 nM. The binding signal to mouse IL-36R and to human IL-1R1 for these antibodies measured using the Fortebio Octet (Fortebio, Menlo Park, Calif.) is zero, which indicates these antibodies selectively bind to human IL-36R.
# mouse IL-36R = biological target: T3, mouse IL-36R; test: as above
# Experimental: as §1
# [2] = biological target: cynomolgus IL-36R on BaF/3 cells (cynomolgus, UniProt A0A2K5WSK9 20-558); test: cell-based or functional assay
# cynomolgus IL-36R on BaF/3 cells, sequence (A0A2K5WSK9 entry or part of it): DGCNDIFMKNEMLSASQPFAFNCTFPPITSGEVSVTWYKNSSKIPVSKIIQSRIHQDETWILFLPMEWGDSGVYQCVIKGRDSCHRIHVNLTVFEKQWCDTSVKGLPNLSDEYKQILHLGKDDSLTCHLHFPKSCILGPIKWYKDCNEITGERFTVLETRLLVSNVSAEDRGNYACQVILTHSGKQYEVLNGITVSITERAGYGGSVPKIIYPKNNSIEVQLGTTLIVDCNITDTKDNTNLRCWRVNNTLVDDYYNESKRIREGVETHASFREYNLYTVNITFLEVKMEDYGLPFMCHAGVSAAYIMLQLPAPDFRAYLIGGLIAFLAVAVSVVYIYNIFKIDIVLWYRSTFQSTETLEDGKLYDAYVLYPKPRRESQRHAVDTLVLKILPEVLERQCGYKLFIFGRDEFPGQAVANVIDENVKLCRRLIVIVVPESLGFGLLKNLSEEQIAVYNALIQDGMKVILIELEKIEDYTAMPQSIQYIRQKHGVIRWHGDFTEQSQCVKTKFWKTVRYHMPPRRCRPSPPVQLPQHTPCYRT
# human IL-36R on cells [3] = biological target: T1, human IL-36R on cells; test: cell-based or functional assay; remark: listed apart in the source
# human IL-36R on cells [4] = biological target: T1, human IL-36R on cells; test: flow cytometry, HEK293 cells transfected with full-length human IL-36R
# Experimental: HEK293 cells transfected with full-length human IL-36R or NCI/ADR-RES cells were passaged for 24 hours prior to staining. Cells were removed from flasks by rinsing with 10 ml of 5 mM EDTA in PBS, and then incubated at 37° C. for 10 min with an additional 10 ml of 5 mM EDTA and 2.5 ml of Accumax to declump/disperse cells. Antibodies were then diluted to specified concentrations in PBS+2% BSA, and cells incubated for 20 min at room temperature. Excess antibody was then washed by adding 200 μl of PBS and then centrifuged. Secondary reagent was then added at 50 μl per well and cells are incubated for 15 min at room temperature and then washed as above. Cells were resuspended in 200 μl PBS and analyzed by flow cytometry.
# [5] = biological target: T4, recombinant human IL-36R (ECD); test: SPR (ProteOn), single IL-36R surface coat concentration
# Experimental: A) Kinetics and binding affinities of anti-IL-36R antibodies binding to recombinant human IL-36R were measured using the Proteon (Bio-Rad, Hercules, Calif.) using material generated from hybridoma following single column purification. […] Binding of the chimeric anti-IL36R IgGs is equivalent to the respective mouse leads.
binder,measurement,setting,value
"Antibody C1 (antibody, human IgG1, kappa, L234A L235A, V domains shown) VH: QVQLQESGPGLVAPSETLSLTCTVSGFSLTDYAVHWIRQFPGKGLEWIGVIWSDGSTDFNAPFKSRVTISKDTSKNQVSFKLSSVTTDDTAVYYCARKGGYSGSWFAYWGQGTLVTVSS VL: EIVMTQSPATLSVSPGVRATLSCKASQDVGTNVLWYQQKPGQAPRPLIYSASYRHSGIPARFSGSGSGTEFTLTISSLQSEDFAEYYCQQYSRYPLTFGQGTKLEIKR","IC90, pNFκB, NCI/ADR-RES cells, trun-IL-36a",human IL-36R on cells [1],4.6 nM
same,"IC90, pNFκB, NCI/ADR-RES cells, trun-IL-36b",human IL-36R on cells [1],5.5 nM
same,"IC90, pNFκB, NCI/ADR-RES cells, trun-IL-36g",human IL-36R on cells [1],3.4 nM
"Antibody C2 (antibody, human IgG1, kappa, L234A L235A, V domains shown) VH: QVQLQESGPGLVKPSETLSITCTVSGFSLTDYAVHWIRQPPGKGLEWIGVIWSDGSTDYNAPFKSRVTISKDNSKSQVSFKMSSVTADDTAVYYCARKGGYSGSWFAYWGQGTLVTVSS VL: EIVMTQSPATLSVSPGVRATLSCKASQDVGTNVLWYQQKPGQAPRPLIYSASYRHSGIPDRFSGSGSGTEFTLTISSLQSEDFAVYYCQQYSRYPLTFGQGTKLEIKR","IC90, pNFκB, NCI/ADR-RES cells, trun-IL-36a",human IL-36R on cells [1],9.7 nM
same,"IC90, pNFκB, NCI/ADR-RES cells, trun-IL-36b",human IL-36R on cells [1],8.6 nM
same,"IC90, pNFκB, NCI/ADR-RES cells, trun-IL-36g",human IL-36R on cells [1],6.1 nM
"Antibody C3 (antibody, human IgG1, kappa, L234A L235A, V domains shown) VH: QVQLQESGPGLVAPSETLSLTCTVSGFSLTDYAVHWIRQFPGKGLEWIGVIWSDGSTDFNAPFKSRVTISKDTSKNQVSFKLSSVTTDDTAVYYCARKGGYSGSWFAYWGQGTLVTVSS VL: EIVMTQSPATLSVSPGVRATLSCKASQDVGTNVLWYQQKPGQAPRPLIYSASYRHSGIPDRFSGSGSGTEFTLTISSLQSEDFAVYYCQQYSRYPLTFGQGTKLEIKR","IC90, pNFκB, NCI/ADR-RES cells, trun-IL-36a",human IL-36R on cells [1],9.8 nM
same,"IC90, pNFκB, NCI/ADR-RES cells, trun-IL-36b",human IL-36R on cells [1],5.6 nM
same,"IC90, pNFκB, NCI/ADR-RES cells, trun-IL-36g",human IL-36R on cells [1],5.1 nM
"antibody 76E10 (antibody, V domains shown, Mouse monoclonal from hybridoma; also called 76E10E8) VH: QVQLKESGPVLVAPSQSLSITCTVSGFSLTNYGVHWVRQPPGKGLEWLGVIWPVGSTNYNSALMSRLSIHKDNSKSQVFLRMNSLQTDDTAIYYCAKMDWDDFFDYWGQGTTLTVSS VL: DIVMTQSQKFMSATVGGRVNITCKASQNVGRAVAWYQQKPGQSPKLLTHSASNRYTGVPDRFTGSGSGTDFTLTITNMQSEDLADYFCQQYSSYPLTFGAGTKLDLK",binding result,human IL-1R1,no binding (tested: 100 nM)
same,binding result,mouse IL-36R,no binding (tested: 100 nM)
same,"IC90, pNFκB, BaF/3 cynomolgus IL-36R cells, trun-IL-36a",[2],> 4 µM
same,"IC90, pNFκB, BaF/3 cynomolgus IL-36R cells, trun-IL-36b",[2],> 333 nM
same,"IC90, pNFκB, BaF/3 cynomolgus IL-36R cells, trun-IL-36g",[2],> 333 nM
same,"IC90, pNFκB, NCI/ADR-RES cells, trun-IL-36g",human IL-36R on cells [3],1.9 nM
same,EC50,human IL-36R on cells [4],0.426 nM
same,Kd,[5],< 0.1 nM
"antibody 89A12 (antibody, V domains shown, Mouse monoclonal from hybridoma; also called 89A12B8) VH: EVQLQQSGAELVRPGASVRLSCTASGFNIKDDYIHWVRQRPKQGLEWLGRIDPANGNTKYDPRFQDKATITADTSSNTAYLHLSSLTSEDTAVYYCAKSFPDNYYSYDDAFAYWGQGTLVTVSA VL: DIQMTQSPASQSASLGESVTFSCLASQTIGTWLGWYQQKPGKSPQLLIYRATSLADGVPSRFSGSGSGTNFSFKISSLQAEDLASYYCQQLYSGPYTFGGGTKLEIR",binding result,human IL-1R1,no binding (tested: 100 nM)
same,binding result,mouse IL-36R,no binding (tested: 100 nM)
same,"IC90, pNFκB, BaF/3 cynomolgus IL-36R cells, trun-IL-36a",[2],> 4 µM
same,"IC90, pNFκB, BaF/3 cynomolgus IL-36R cells, trun-IL-36b",[2],> 333 nM
same,"IC90, pNFκB, BaF/3 cynomolgus IL-36R cells, trun-IL-36g",[2],> 333 nM
same,"IC90, pNFκB, NCI/ADR-RES cells, trun-IL-36g",human IL-36R on cells [3],145 nM
same,EC50,human IL-36R on cells [4],0.609 nM
same,Kd,[5],< 0.1 nM
"antibody 67E7 (antibody, V domains shown, Mouse monoclonal from hybridoma; also called 67E7E8) VH: EVQLQQSGAEFVRPGASVKFSCTASGFNIKDDYIHWVRQRPEQGLEWVGRIDPANGNTKYAPKFQDKATITADTSSNTAYLQLSSLTSEDTAVYYCAKSFPNNYYSYDDAFAYWGQGTLVTVSA VL: DIQMTQSPASQSASLGESVTFTCLASQTIGTWLGWYQQKPGKSPQLLIYRSTTLADGVPSRFSGSGSGTKFSFKISSLQAADFASYYCQQLYSAPYTFGGGTKLEIR",binding result,human IL-1R1,no binding (tested: 100 nM)
same,binding result,mouse IL-36R,no binding (tested: 100 nM)
same,"IC90, pNFκB, BaF/3 cynomolgus IL-36R cells, trun-IL-36a",[2],> 4 µM
same,"IC90, pNFκB, BaF/3 cynomolgus IL-36R cells, trun-IL-36b",[2],> 333 nM
same,"IC90, pNFκB, BaF/3 cynomolgus IL-36R cells, trun-IL-36g",[2],> 333 nM
same,"IC90, pNFκB, NCI/ADR-RES cells, trun-IL-36g",human IL-36R on cells [3],> 67 nM
same,EC50,human IL-36R on cells [4],0.532 nM
same,Kd,[5],< 0.1 nM
"antibody 172C8 (antibody, V domains shown, Mouse monoclonal from hybridoma; also called 172C8B12) VH: EVQLQQSGPELVKPGASVKLSCKASGYTFTDNYMNWVRQSHGKSLEWIGRVNPSNGDTKYNQNFKGKATLTVDKSLSTAYMQLNGLTSEDSAVYYCGRTKNFYSSYSYDDAMDYWGQGTSVTVSS VL: DIQMTQSPASQSASLGESVTFTCLASQTIGTWLAWYQQRPGKSPQLLIYAATSLADGVPSRFSGSGSGTQFSFNIRSLQAEDFASYYCQQVYTTPLTFGGGTKLEIK",binding result,human IL-1R1,no binding (tested: 100 nM)
same,binding result,mouse IL-36R,no binding (tested: 100 nM)
same,"IC90, pNFκB, BaF/3 cynomolgus IL-36R cells, trun-IL-36a",[2],> 4 µM
same,"IC90, pNFκB, BaF/3 cynomolgus IL-36R cells, trun-IL-36b",[2],> 333 nM
same,"IC90, pNFκB, BaF/3 cynomolgus IL-36R cells, trun-IL-36g",[2],> 333 nM
same,"IC90, pNFκB, NCI/ADR-RES cells, trun-IL-36g",human IL-36R on cells [3],3.8 nM
same,Kd,[5],< 0.1 nM
